Results on three molecules are retold here after US20090004214A1 (COMMISSARIAT A L ENERGIE ATOMIQUE, published 2009).

No end group written: not given here.

Test [1] has as its target T1, HLA-DR7 molecule (DRB1*0701) (human).
T1 construct: HLA class II heterodimer
Put plainly: competitive ELISA, tracer YKL. (In an ELISA, binding on a coated surface is turned into a signal by an enzyme label.)

Test [2] addresses T2, HLA-DR15 molecule (DRB1*1501) (human).
T2 construct: HLA class II heterodimer
Put plainly: competitive ELISA, tracer A3 152-166.

The target of test [3] is T3, HLA-DP401 molecule (DPB1*0401) (human, UniProt P20036 29-222, limits assumed).
T3 construct: HLA class II heterodimer; also called DP*0401
Put plainly: competitive ELISA, tracer Oxy 271-287.

The target in test [4] is T4, HLA-DP402 molecule (DPB1*0402) (human, UniProt P20036 29-222, limits assumed).
T4 construct: HLA class II heterodimer; also called DP*0402
Put plainly: competitive ELISA, tracer Oxy 271-287.

In test [5] the target is T5, HLA-DRB3 molecule (DRB3*0101) (human).
T5 construct: HLA class II heterodimer
Put plainly: competitive ELISA, tracer LOL 191-210.

The target of test [6] is T6, HLA-DR3 molecule (DRB1*0301) (human).
T6 construct: HLA class II heterodimer
Put plainly: competitive ELISA, tracer MT 2-16.

Test [7] deals with T7, HLA-DR1 molecule (DRB1*0101) (human).
T7 construct: HLA class II heterodimer
Put plainly: competitive ELISA, tracer HA 306-318.

Test [8] has as its target T8, HLA-DRB5 molecule (DRB5*0101) (human).
T8 construct: HLA class II heterodimer
Put plainly: competitive ELISA, tracer HA 306-318.

In test [9] the target is T9, HLA-DR11 molecule (DRB1*1101) (human).
T9 construct: HLA class II heterodimer
Put plainly: competitive ELISA, tracer HA 306-318.

For test [10], the target named is T10, HLA-DR4 molecule (DRB1*0401) (human).
T10 construct: HLA class II heterodimer
Put plainly: competitive ELISA, tracer HA 306-318.

The target in test [11] is T11, HLA-DR13 molecule (DRB1*1301) (human).
T11 construct: HLA class II heterodimer
Put plainly: competitive ELISA, tracer B1 21-36.

For test [12], the target named is T12, HLA-DRB4 molecule (DRB4*0101) (human).
T12 construct: HLA class II heterodimer
Put plainly: competitive ELISA, tracer E2/E168.

The target in test [13] is T13, HLA-DR13 molecule (DRB1*1301) (human).
T13 chain 1: not shown
T13 chain 2: not shown
Put plainly: competitive ELISA, nonbiotinylated peptide vs its biotinylated tracer.

The target is the same in test [14]. Put plainly: competitive ELISA, tracer B1 21-36.

For orientation: IC50 means the concentration needed to halve the response being measured. Low readings indicate higher potency, high ones lower potency.

As for QPFLKDHRISTFKNW (synthetic 15-mer) [survivin peptide 11-25], the IC50 in test [1] came to 8000 nM; in test [2] it was 22 nM; in [3] it was 33000 nM; in test [4], 25000 nM; in [5], 3670 nM; in test [6] it was 65000 nM. Also, the IC50 in [7] came to 6000 nM; in [8], 2260 nM; in test [9], 329 nM; in test [10] it was 45000 nM; in test [11], 2410 nM; in [12], 75000 nM.
Take TERVRLVTRHIYNREE (not fully specified) [B1 21-36 peptide (nonbiotinylated)]: the IC50 in test [13] stood at 800 nM; in test [14], 609 nM.
For CAFLSVKKQFEELTL (synthetic 15-mer) [survivin peptide 84-98], the IC50 in test [1] came to 179 nM; in test [2] it was 574 nM; in test [3], 167 nM; in test [4] it was 113 nM; in [5], 11800 nM; in test [6] it was 2570 nM. The IC50 turned out to be 2830 nM in [7]; 1770 nM in test [8]; 10 nM in test [9]; 19000 nM in [10]; 845 nM in test [11]; 1330 nM in test [12].
